Experiments:
[1] = test system: MCF-7 cells; test: Adhesion to MCF-7 WT monolayers blocked with rBST-2; type: cell-based, human
Protocol: (§1) FIG. 22. […] PKH67Green-labeled shControl (shCTL)- or sh413 (shBST-2)-expressing (A) 4T1 or (B) E0771 cells were allowed to adhere to plates that were coated with 0, 20 or 50 ng of recombinant BST-2 (rBST-2) and fluorescence assessed with a plate reader. (C) Representative confocal images of cells attached to wells coated with increasing concentrations of rBST-2. (D) Quantification of PKH67Green-labeled MCF-7 cells expressing Vector, WT or C3A BST-2 adhered to plates that were coated with 0, 20 or 50 ng of rBST-2. […] Cells that adhered to WT MCF-7 monolayers were quantified and represented as relative fluorescence intensity. Each data point corresponds to six different wells analyzed. Error bars correspond to SEM. Significance was taken at P<0.05* and P<0.01**. n.s=not significant.

[2] = test system: BST-2; test: Adhesion of cancer cells to plates coated with recombinant BST-2; type: cell-based; settings: plates coated with 0, 20 or 50 ng rBST-2
Protocol: as §1
Low BST-2 expressing human breast cancer cells (MCF-7) stably expressing WT BST-2 (WT) efficiently binds BST-2 ECD while similar cells stably expressing dimerization mutant BST-2 (C3A) are defective in binding BST-2 ECD. Treatment of BST-2-expressing breast cancer cells with BST-2 ECD blocks cancer cell-to-cancer clustering (FIG. 22).

B1: rBST-2: recombinant extracellular domain (ECD) of BST-2 (protein, UniProt Q10589 49-161, looked up)
extracellular domain: NSEACRDGLRAVMECRNVTHLLQQELTEAQKGFQDVEAQAATCNHTVMALMASLDAEKAQGQKKVEELEGEITTLNHKLQDASAEVERLRRENQVLSVRIADKKYYPSSQDSS
modifications: extracellular domain
- BST-2-mediated adhesion of breast cancer cells [1]: prevents BST-2-mediated adhesion of breast cancer cells
- binding to BST-2 [2]: binds to BST-2 in vitro

Source: patent US20180200331A1, “BST-2 AS A THERAPEUTIC TARGET AND DIAGNOSTIC MARKER FOR BREAST CANCER GROWTH AND METASTASIS” (University of Iowa Research Foundation, priority 2015, published 2018)
